According to patent US11028167 (CENTIVAX, dated 2021):

B1: COVID19_P06_G10 (scFv, V domains shown)
VH: QVQLVQSGAEVKKPGASVKVSCKASGYDFINYYIHWVRQAPGQGLEWMGIIDPSGGSTSYAQKFQGRVTMTRDTSTSTVYMELSSLRSEDTAVYYCTREGIPQLLRTLDYWGQGTLVTVSS
VL: DIQMTQSPSSLSASVGDRVTITCRASQDISDSLAWYQQKPGKAPKLLIYAASSLQSGVPSRFSGSGSGTDFTLTISSLQPEDFATYYCQQSYSRLAWTFGGGTKVEIKR
B2: COVID19_R02_D11 (scFv, V domains shown)
VH: QVQLVQSGAEVKKPGASVKVSCKASGYTFTENEMHWVRQAPGQGLEWMGIINPSAGSTSYAQKFQGRVTMTRDTSTSTVYMELSSLRSEDTAVYYCTREGIPQLLRTLDYWGQGTLVTVSS
VL: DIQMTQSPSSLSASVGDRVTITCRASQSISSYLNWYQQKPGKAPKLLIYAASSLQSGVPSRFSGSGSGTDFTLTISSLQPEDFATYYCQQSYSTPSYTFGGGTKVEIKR
B3: COVID19_R02_F04 (scFv, V domains shown)
VH: QVQLVQSGAEVKKPGASVKVSCKASGYRFTSYEVNWVRQAPGQGLEWMGIINPSGGSTSYAQKFQGRVTMTRDTSTSTVYMELSSLRSEDTAVYYCTREGIPQLLWALDYWGQGTLVTVSS
VL: not shown
B4: COVID19_R02_A12 (scFv, V domains shown)
VH: QVQLVQSGAEVKKPGASVKVSCKASGYTFTENEMHWVRQAPGQGLEWMGIINTSGGYTNYAQKFQGRVTMTRDTSTSTVYMELSSLRSEDTAVYYCTREGIPQLLRTLDYWGQGTLVTVSS
VL: DIQMTQSPSSLSASVGDRVTITCRASQSISSWLAWYQQKPGKAPKLLIYAASSLQSGVPSRFSGSGSGTDFTLTISSLQPEDFATYYCQQSYSNPYTFGGGTKVEIKR
B5: COVID19_P06_G03 (scFv, V domains shown)
VH: QVQLVQSGAEVKKPGASVKVSCKASGYTFTENEMHWVRQAPGQGLEWMGVVNPSGGYTSYAQKFQGRVTMTRDTSTSTVYMELSSLRSEDTAVYYCTREGIPQLLRSQDYWGQGTLVTVSS
VL: not shown
B6: COVID19_R02_F06 (scFv, V domains shown)
VH: QVQLVQSGAEVKKPGASVKVSCKASGYTFTENEMHWVRQAPGQGLEWMGIINPNGGGTYYAQKFQGRVTMTRDTSTSTVYMELSSLRSEDTAVYYCTREGIPQLLRTLDYWGQGTLVTVSS
VL: DIQMTQSPSSLSASVGDRVTITCRASQGIRNDLGWYQQKPGKAPKLLIYAASSLQSGVPSRFSGSGSGTDFTLTISSLQPEDFATYYCQQTYSAPYTFGGGTKVEIKR
B7: COVID19_R02_B06 (scFv, V domains shown)
VH: QVQLVQSGAEVKKPGASVKVSCKASGYTFTENEMHWVRQAPGQGLEWMGVINPSGGYTSYAQKFQGRVTMTRDTSTSTVYMELSSLRSEDTAVYYCTREGIPQLLRHLDYWGQGTLVTVSS
VL: DIQMTQSPSSLSASVGDRVTITCRASQSISGYLSWYQQKPGKAPKLLIYAASSLQSGVPSRFSGSGSWTDFTLTISSLQPEDFATYYCQQSYSTPLTFGGGTKVEIKR
B8: COVID19_P06_C02 (scFv, V domains shown)
VH: QVQLVQSGAEVKKPGASVKVSCKASGYTFTENEMHWVRQAPGQGLEWMGIINPSGGSTSYAQKFQGRVTMTRDTSTSTVYMELSSLRSEDTAVYYCTREGIPWWLRTLDYWGQGTLVTVSS
VL: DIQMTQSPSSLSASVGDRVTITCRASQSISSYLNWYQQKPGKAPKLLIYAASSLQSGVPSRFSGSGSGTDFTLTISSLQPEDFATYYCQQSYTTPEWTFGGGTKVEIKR
notes: also called COVID19_P06_CO2
B9: COVID19_R02_D07 (scFv, V domains shown)
VH: QVQLVQSGAEVKKPGASVKVSCKASGYTFTENEMHWVRQAPGQGLEWMGIINPSGGSTSYAQKFQGRVTMTRDTSTSTVYMELSSLRSEDTAVYYCTREGPPQLLRTLDYWGQGTLVTVSS
VL: DIQMTQSPSSLSASVGDRVTITCRASQSISSYLNWYQQKPGKAPKLLIYHTSNLETGVPSRFSGSGSGTDFTLTISSLQPEDFATYYCQQSYSFPATTFGGGTKVEIKR
B10: COVID19_R02_C11 (scFv, V domains shown)
VH: QVQLVQSGAEVKKPGASVKVSCKASGYTFSDYYMHWVRQAPGQGLEWMGIIDPSGGSASYAQKFQGRVTMTRDTSTSTVYMELSSLRSEDTAVYYCTREGIPQLLRTLDYWGQGTLVTVSS
VL: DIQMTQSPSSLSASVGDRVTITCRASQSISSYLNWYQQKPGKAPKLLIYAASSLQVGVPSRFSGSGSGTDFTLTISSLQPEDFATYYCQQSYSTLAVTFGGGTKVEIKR
B11: COVID19_R02_A05 (scFv, V domains shown)
VH: QVQLVQSGAEVKKPGASVKVSCKASGYTFTENEMHWVRQAPGQGLEWMGMINPSGGYTNYAQEFQGRVTMTRDTSTSTVYMELSSLRSEDTAVYYCTREGIPQLLRTLDYWGQGTLVTVSS
VL: DIQMTQSPSSLSASVGDRVTITCRASQSIYRWLAWYQQKPGKAPKLLIYAASSLQSGVPSRFSGSGSGTEFTLTISSLQPEDFATYYCQQSYGNPYTFGGGTKVEIKR
B12: COVID19_R02_E11 (scFv, V domains shown)
VH: QVQLVQSGAEVKKPGASVKVSCKASGYTFTENEMHWVRQAPGQGLEWMGIINPSGGSTSYAQKFQGRVTMTRDTSTSTVYMELSSLRSEDTAVYYCTREGIPQLLRTLDYWGQGTLVTVSS
VL: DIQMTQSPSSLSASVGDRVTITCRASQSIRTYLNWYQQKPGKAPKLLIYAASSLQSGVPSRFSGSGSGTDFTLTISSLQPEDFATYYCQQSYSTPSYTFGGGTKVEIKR
notes: also called COVID19_C R02_E11
B13: COVID19_R02_A04 (scFv, V domains shown)
VH: QVQLVQSGAEVKKPGASVKVSCKASGYTFTENEMHWVRQAPGQGLEWMGIINPDGGSTSYAQKFQGRVTMTRDTSTSTVYMELSSLRSEDTAVYYCTREGIPQLLRTLDYWGQGTLVTVSS
VL: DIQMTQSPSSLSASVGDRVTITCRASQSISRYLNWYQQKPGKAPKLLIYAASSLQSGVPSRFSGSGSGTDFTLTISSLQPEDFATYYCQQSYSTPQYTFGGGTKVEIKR
B14: COVID19_R02_D03 (scFv, V domains shown)
VH: QVQLVQSGAEVKKPGASVKVSCKASGYTFTEYEMHWVRQAPGQGLEWMGIINPSGGYTNYAQKFQGRVTMTRDTSTSTVYMELSSLRSEDTAVYYCTREGIPQVLRTLDYWGQGTLVTVSS
VL: DIQMTQSPSSLSASVGDRVTITCRASQSISSWLAWYQQKPGKAPKLLIYAASSLQSGVPSRFSGSGSGTDFTLTISSLQPEDFATYYCQQSYSNPYTFGGGTKVEIKR
B15: COVID19_R02_F07 (scFv, V domains shown)
VH: QVQLVQSGAEVKKPGASVKVSCKASGYTFTENEMHWVRQAPGQGLEWMGIINTSGGYTNYAQKFQGRVTMTRDTSTSTVYMELSSLRSEDTAVYYCTREGIPQLLRTLDYWGQGTLVTVSS
VL: DIQMTQSPSSLSASVGDRVTITCRASQSISSWLAWYQQKPGKAPKLLIYAASSLQSGVPSRFSGSGSGTDFTLTISSLQPEDFATYYCQQSYSNPLHFGGGTKVEIKR
B16: COVID19_P06_F05 (scFv, V domains shown)
VH: QVQLVQSGAEVKKPGASVKVSCKASGYTFASYDVNWVRQAPGQGLEWMGIINPRSGDANYAQKFQGRVTMTRDTSTSTVYMELSSLRSEDTAVYYCTRERHPQLLMPLDYWGQGTLVTVSS
VL: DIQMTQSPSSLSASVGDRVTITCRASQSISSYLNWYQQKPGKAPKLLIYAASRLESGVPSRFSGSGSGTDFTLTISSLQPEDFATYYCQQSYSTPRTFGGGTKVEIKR
B17: COVID19_P06_G11 (scFv, V domains shown)
VH: QVQLVQSGAEVKKPGASVKVSCKASGNTFTGYYMHWVRQAPGQGLEWMGAIYPGGSDTSYNQKFQGRVTMTRDTSTSTVYMELSSLRSEDTAVYYCTREGIPQLAWTLDYWGQGTLVTVSS
VL: DIQMTQSPSSLSASVGDRVTITCRASQSMSSYLNWYQQKPGKAPKLLIYAASSLQSGVPSRFSGSGSGTEFTLTISSLQPEDIATYYCQQFGSFGGGTKVEIKR
B18: COVID19_R02_F08 (scFv, V domains shown)
VH: QVQLVQSGAEVKKPGASVKVSCKASGYTFGNYAINWVRQAPGQGLEWMGAIYPGNSDTTYNQKFQGRVTMTRDTSTSTVYMELSSLRSEDTAVYYCARDTVMGGMDVWGQGTLVTVSS
VL: DIQMTQSPSSLSASVGDRVTITCRASQEISGYLSWYQQKPGKAPKLLIYAASSLQSGVPSRFSGSGSGTDFTLTISSLQPEDFATYYCQQYVSYPWTFGGGTKVEIKR
B19: COVID19_P06_G02 (scFv, V domains shown)
VH: QVQLVQSGAEVKKPGASVKVSCKASGYTFTSHDINWVRQAPGQGLEWMGMINPSGGYTSYAQNFQGRVTMTRDTSTSTVYMELSSLRSEDTAVYYCTREGIPALLRTLDYWGQGTLVTVSS
VL: DIQMTQSPSSLSASVGDRVTITCRASQGIRNDLGWYQQKPGKAPKLLIYAASSLQSGVPSRFSGSGSGTDFTLTISSLQPEDFATYYCQQTYTTPYTFGGGTKVEIKR

Legend:
Experiment in all cases: SPR, scFv captured by anti-V5, RBD analyte
[1] = target: SARS-CoV-2 Receptor Binding Domain (RBD) protein (SARS-CoV-2, UniProt P0DTC2 319-541)
[2] = target: MERS Receptor Binding Domain (RBD) protein (Middle East Respiratory Syndrome (MERS) …, UniProt K9N5Q8 367-606)
[3] = target: SARS-CoV-1 Receptor Binding Domain (RBD) protein (SARS-CoV-1, UniProt P59594 306-527)

| Binder | Kd [1] [nM] | koff [1] [s⁻¹] | kon [1] [M⁻¹ s⁻¹] | binding result [2] | binding result [3] |
| --- | --- | --- | --- | --- | --- |
| B1 | 2.06 | 0.00068 | 330000 | no binding (tested: 300 nM) | no binding (tested: 300 nM) |
| B2 | 4.9 | 0.00069 | 140000 | no binding (tested: 300 nM) | no binding (tested: 300 nM) |
| B3 | 6.4 | 0.00036 | 56000 |  |  |
| B4 | 46.3 | 0.0102 | 219000 | no binding (tested: 300 nM) | no binding (tested: 300 nM) |
| B5 |  |  |  | no binding (tested: 300 nM) | no binding (tested: 300 nM) |
| B6 |  |  |  | no binding (tested: 300 nM) | no binding (tested: 300 nM) |
| B7 |  |  |  | no binding (tested: 300 nM) | no binding (tested: 300 nM) |
| B8 | 6.15 | 0.000438 | 71200 | no binding (tested: 300 nM) | no binding (tested: 300 nM) |
| B9 | 6.3 | 0.00043 | 68000 | no binding (tested: 300 nM) | no binding (tested: 300 nM) |
| B10 | 12.8 | 0.0011 | 86000 | no binding (tested: 300 nM) | no binding (tested: 300 nM) |
| B11 |  |  |  | no binding (tested: 300 nM) | no binding (tested: 300 nM) |
| B12 | 7.9 | 0.00079 | 100000 | no binding (tested: 300 nM) | no binding (tested: 300 nM) |
| B13 | 12.7 | 0.00069 | 54400 | no binding (tested: 300 nM) | no binding (tested: 300 nM) |
| B14 |  |  |  | no binding (tested: 300 nM) | no binding (tested: 300 nM) |
| B15 |  |  |  | no binding (tested: 300 nM) | no binding (tested: 300 nM) |
| B16 | 0.9 | 5.7e-05 | 61900 | no binding (tested: 300 nM) | no binding (tested: 300 nM) |
| B17 | 21.5 | 0.0014 | 65000 | no binding (tested: 300 nM) | no binding (tested: 300 nM) |
| B18 | 9.1 | 0.00071 | 78000 | no binding (tested: 300 nM) | no binding (tested: 300 nM) |
| B19 | 6.92 | 0.0009 | 130000 | no binding (tested: 300 nM) | no binding (tested: 300 nM) |
